Reference: the Human Domainome abundance scans (Beltran et al. 2025)
± gives the uncertainty stated by the source.

B1: Activity-dependent neuroprotector homeobox protein, residues 770 to 810; numbered along this chain, Q9H2P0 (parent)
chain: FLTKYFNKQPYPTRREIEKLAASLWLWKSDIASHFSNKRKK

Variants of: B1
Experiment: abundance fitness (aPCA) (normalised: wild type 0, dead -1); higher = more abundant; growth selection in yeast, the domain comes from the species named
Details: Homo sapiens

FLTKYFNKQPYPTRREIEKLAASLWLWKSDKASHFSNKRKK [I31K] and FLTKYFNKQPYPTRREIEKLAASLWLWKSDEASHFSNKRKK [I31E] are within error of each other in abundance fitness: -0.276 ± 0.084 for the first, -0.23 ± 0.091 for the second.

FLTKYFNKQPYPTRREIEKLAASLWLWKSDGASHFSNKRKK [I31G] and FLTKYFNKQPYPTRREIEKLAASLWLWKSDICSHFSNKRKK [A32C] are within error of each other in abundance fitness: -0.129 ± 0.072 for the first, 0.074 ± 0.14 for the second.

Compared with FLTKYFNKQPYPTRREIEKLAASLWLWKSDITSHFSNKRKK [A32T], FLTKYFNKQPYPTRREIEKLAASLWLWKSDIWSHFSNKRKK [A32W] is higher in abundance fitness: -0.086 ± 0.083 for the first, 0.113 ± 0.091 for the second.

FLTKYFNKQPYPTRREIEKLAASLWLWKSDIPSHFSNKRKK [A32P] and FLTKYFNKQPYPTRREIEKLAASLWLWKSDIQSHFSNKRKK [A32Q] are within error of each other in abundance fitness: -0.383 ± 0.11 for the first, -0.169 ± 0.17 for the second.

FLTKYFNKQPYPTRREIEKLAASLWLWKSDIRSHFSNKRKK [A32R] and FLTKYFNKQPYPTRREIEKLAASLWLWKSDISSHFSNKRKK [A32S] are within error of each other in abundance fitness: 0.029 ± 0.064 for the first, -0.196 ± 0.45 for the second.

First: FLTKYFNKQPYPTRREIEKLAASLWKWKSDIASHFSNKRKK [L26K]
Second: FLTKYFNKQPYPTRREIEKLAASLWCWKSDIASHFSNKRKK [L26C]
The abundance fitness of the first is higher: 0.341 ± 0.063 for the first, -0.014 ± 0.068 for the second.

Compared with FLTKYFNKQPYPTRREIEKLAASLWIWKSDIASHFSNKRKK [L26I], FLTKYFNKQPYPTRREIEKLAASLWVWKSDIASHFSNKRKK [L26V] is higher in abundance fitness: -0.134 ± 0.063 for the first, 0.037 ± 0.056 for the second.

FLTKYFNKQPYPTRREIEKLAASLWRWKSDIASHFSNKRKK [L26R] and FLTKYFNKQPYPTRREIEKLAASLWGWKSDIASHFSNKRKK [L26G] are within error of each other in abundance fitness: 0.198 ± 0.049 for the first, 0.101 ± 0.055 for the second.

Compared with FLTKYFNKQPYPTRREIEKLAASLWPWKSDIASHFSNKRKK [L26P], FLTKYFNKQPYPTRREIEKLAASLWTWKSDIASHFSNKRKK [L26T] is lower in abundance fitness: 0.343 ± 0.058 for the first, 0.022 ± 0.066 for the second.

FLTKYFNKQPYPTRREIEKLAASLWQWKSDIASHFSNKRKK [L26Q] and FLTKYFNKQPYPTRREIEKLAASLWHWKSDIASHFSNKRKK [L26H] are within error of each other in abundance fitness: 0.122 ± 0.085 for the first, 0.253 ± 0.074 for the second.

FLTKYFNKQPYPTRREIEKLAASLWWWKSDIASHFSNKRKK [L26W] and FLTKYFNKQPYPTRREIEKLAASLWDWKSDIASHFSNKRKK [L26D] are within error of each other in abundance fitness: 0.044 ± 0.075 for the first, -0.004 ± 0.075 for the second.

First: FLTKYFNKQPYPTRREIEKLAASLWYWKSDIASHFSNKRKK [L26Y]
Second: FLTKYFNKQPYPTRREIEKLAASLWMWKSDIASHFSNKRKK [L26M]
The abundance fitness of the first is lower: -0.151 ± 0.083 for the first, 0.115 ± 0.084 for the second.

FLTKYFNKQPYPTRREIEKLAASLWSWKSDIASHFSNKRKK [L26S] and FLTKYFNKQPYPTRREIEKLAASLWFWKSDIASHFSNKRKK [L26F] are within error of each other in abundance fitness: 0.033 ± 0.051 for the first, 0.069 ± 0.088 for the second.

Going from FLTKYFNKQPYPTRREIEKLAASLWEWKSDIASHFSNKRKK [L26E] to FLTKYFNKQPYPTRREIEKLAASLWAWKSDIASHFSNKRKK [L26A], the abundance fitness falls from 0.127 ± 0.061 to -0.116 ± 0.068.

Compared with FLTKYFNKQPYPTRREIEKLAASLWLWHSDIASHFSNKRKK [K28H], FLTKYFNKQPYPTRREIEKLAASLWLWQSDIASHFSNKRKK [K28Q] is higher in abundance fitness: -0.421 ± 0.11 for the first, -0.184 ± 0.06 for the second.

Going from FLTKYFNKQPYPTRREIEKLAASLWLWESDIASHFSNKRKK [K28E] to FLTKYFNKQPYPTRREIEKLAASLWLWWSDIASHFSNKRKK [K28W], the abundance fitness rises from -0.463 ± 0.085 to 0.13 ± 0.067.

First: FLTKYFNKQPYPTRREIEKLAASLWLWPSDIASHFSNKRKK [K28P]
Second: FLTKYFNKQPYPTRREIEKLAASLWLWYSDIASHFSNKRKK [K28Y]
The abundance fitness of the first is higher: 0.257 ± 0.072 for the first, -0.443 ± 0.16 for the second.

First: FLTKYFNKQPYPTRREIEKLAASLWLWMSDIASHFSNKRKK [K28M]
Second: FLTKYFNKQPYPTRREIEKLAASLWLWSSDIASHFSNKRKK [K28S]
The abundance fitness of the first is higher: 0.438 ± 0.06 for the first, 0.028 ± 0.052 for the second.

Compared with FLTKYFNKQPYPTRREIEKLAASLWLWRSDIASHFSNKRKK [K28R], FLTKYFNKQPYPTRREIEKLAASLWLWCSDIASHFSNKRKK [K28C] is higher in abundance fitness: -0.188 ± 0.049 for the first, 0.317 ± 0.059 for the second.

Compared with FLTKYFNKQPYPTRREIEKLAASLWLWGSDIASHFSNKRKK [K28G], FLTKYFNKQPYPTRREIEKLAASLWLWTSDIASHFSNKRKK [K28T] is higher in abundance fitness: 0.048 ± 0.057 for the first, 0.18 ± 0.048 for the second.

First: FLTKYFNKQPYPTRREIEKLAASLWLWLSDIASHFSNKRKK [K28L]
Second: FLTKYFNKQPYPTRREIEKLAASLWLWASDIASHFSNKRKK [K28A]
The abundance fitness of the first is higher: 0.55 ± 0.048 for the first, 0.333 ± 0.048 for the second.

Compared with FLTKYFNKQPYPTRREIEKLAASLWLWFSDIASHFSNKRKK [K28F], FLTKYFNKQPYPTRREIEKLAASLWLWNSDIASHFSNKRKK [K28N] is lower in abundance fitness: 0.435 ± 0.06 for the first, -0.244 ± 0.076 for the second.

First: FLTKYFNKQPYPTRREIEKLAASLWLWVSDIASHFSNKRKK [K28V]
Second: FLTKYFNKQPYPTRREIEKLAASLWLWDSDIASHFSNKRKK [K28D]
The abundance fitness of the first is higher: 0.508 ± 0.06 for the first, -0.514 ± 0.12 for the second.

Going from FLTKYFNKQPYPTRREIEKLAASLWLWISDIASHFSNKRKK [K28I] to FLTKYFNKQPYPTRREIEKLAASLWLWKSLIASHFSNKRKK [D30L], the abundance fitness falls from 0.445 ± 0.055 to -0.376 ± 0.069.

FLTKYFNKQPYPTRREIEKLAASLWLWKSFIASHFSNKRKK [D30F] and FLTKYFNKQPYPTRREIEKLAASLWLWKSYIASHFSNKRKK [D30Y] are within error of each other in abundance fitness: -0.257 ± 0.11 for the first, -0.082 ± 0.13 for the second.

Going from FLTKYFNKQPYPTRREIEKLAASLWLWKSEIASHFSNKRKK [D30E] to FLTKYFNKQPYPTRREIEKLAASLWLWKSPIASHFSNKRKK [D30P], the abundance fitness rises from -0.124 ± 0.1 to 0.056 ± 0.064.

FLTKYFNKQPYPTRREIEKLAASLWLWKSMIASHFSNKRKK [D30M] and FLTKYFNKQPYPTRREIEKLAASLWLWKSKIASHFSNKRKK [D30K] are within error of each other in abundance fitness: -0.054 ± 0.1 for the first, 0.071 ± 0.1 for the second.

Compared with FLTKYFNKQPYPTRREIEKLAASLWLWKSQIASHFSNKRKK [D30Q], FLTKYFNKQPYPTRREIEKLAASLWLWKSVIASHFSNKRKK [D30V] is lower in abundance fitness: 0 ± 0.12 for the first, -0.317 ± 0.11 for the second.

FLTKYFNKQPYPTRREIEKLAASLWLWKSWIASHFSNKRKK [D30W] and FLTKYFNKQPYPTRREIEKLAASLWLWKSGIASHFSNKRKK [D30G] are within error of each other in abundance fitness: -0.01 ± 0.077 for the first, -0.025 ± 0.064 for the second.

FLTKYFNKQPYPTRREIEKLAASLWLWKSTIASHFSNKRKK [D30T] and FLTKYFNKQPYPTRREIEKLAASLWLWKSHIASHFSNKRKK [D30H] are within error of each other in abundance fitness: -0.182 ± 0.089 for the first, -0.124 ± 0.092 for the second.

Going from FLTKYFNKQPYPTRREIEKLAASLWLWKSRIASHFSNKRKK [D30R] to FLTKYFNKQPYPTRREIEKLAASLWLWKSAIASHFSNKRKK [D30A], the abundance fitness falls from -0.026 ± 0.053 to -0.247 ± 0.062.
